The record followed here is US20130338033A1, “Diagnostic and Prognostic Markers for Metastasis” (VIRGINIA COMMONWEALTH UNIVERSITY, priority 2011, published 2013).

Some results are limits rather than exact numbers.

In one assay the test system is IGFBP-2. The assay can be described thus: IGFBP-2 ELISA in conditioned media of FM-516 cells infected with Ad.5/3-mda-9. In kind it is cell-based, human. As to conditions: Ad.5/3-mda-9, 1-5 μM (FIG. 4F). (In an ELISA, binding on a coated surface is turned into a signal by an enzyme label.)
Assay [1] concerns HuVECs. The assay can be described thus: HuVEC proliferation (growth kinetics, trypan blue dye exclusion). Particulars: HuVECs treated with rhIGFBP-2 (FIG. 3B). In kind it is cell-based, human. As to the method:
FIG. 3 A-H. Pro-angiogenic activity of IGFBP-2. a) Top panel, an antibody-based array comparing the expression levels of regulators of angiogenesis in CM from C8161.9 con-sh and C8161.9-shmda-9 clones was performed as described in Materials and Methods. Bottom panel, graphical representation of the band intensity quantified by densitometry. b) HuVECs were cultured in the presence of recombinant human IGFBP-2 (rhIGFBP-2) protein alone or with neutralizing antibody (NA) and growth kinetics were determined by trypan blue dye exclusion as described in Materials and Methods. Data represents Mean±S.D. c, d & e) HuVECs were treated with rhIGFBP-2 with or without neutralizing antibody (NA) and migration (c), tube formation (d) and vascularization in CAM (e) were analyzed. Data represents Mean±S.D. f) C8161.9 cells were transfected with either scrambled RNA (si-con) or si-IGFBP-2 and CM were analyzed for tube formation on Matrigel (upper panel) and vascularization in CAM (lower panel). g) Pooled clones of C8161.9 cells stably expressing shIGFBP-2 were established and assessed for tumor generation ability in athymic nude mice (n=5, repeated three times). […] Tumor weight was measured at the end of the study. Data represents Mean±S.D. In panel c), d) and g), italicized letters indicate significant differences between groups assessed by Student's t-test (p<0.05). […]

In assay [2] the test system is HuVECs. The assay can be described thus: HuVEC migration through Matrigel. As to conditions: HuVECs treated with rhIGFBP-2 (FIG. 3C). In kind it is cell-based, human. From the text:
FIG. 2A-G. Effect of mda-9/syntenin on the angiogenic phenotype of human vascular endothelial cells (HuVECs). a) Time course analysis of growth of HuVECs in co-culture with either C8161.9-con-sh or C8161.9-shmda-9 clones. b) Analysis of tube formation by HuVECs co-cultured with C8161.9-con-sh or C8161.9-shmda-9 clones on Matrigel coated plates grown in serum-starved media conditions. Left panel, photomicrograph, Right panel, graphical representation of quantification of tube formation. Data represents Mean±S.D. c) HuVEC migration towards melanoma cells. […] HuVECs migration was quantified and graphical representation is provided in the lower panel. […] The assay was scored after 18 h. Photomicrograph (Left panel) and graphical quantification of migration (Right panel) is presented. […] Left panel, photomicrograph, Right panel, graphical representation of quantitation of tube formation. […]
FIG. 3 A-H. Pro-angiogenic activity of IGFBP-2. a) Top panel, an antibody-based array comparing the expression levels of regulators of angiogenesis in CM from C8161.9 con-sh and C8161.9-shmda-9 clones was performed as described in Materials and Methods. […] Data represents Mean±S.D. c, d & e) HuVECs were treated with rhIGFBP-2 with or without neutralizing antibody (NA) and migration (c), tube formation (d) and vascularization in CAM (e) were analyzed. […] Tumor weight was measured at the end of the study. […]

The subject of assay [3] is HuVECs. Briefly: Capillary-like tube formation by HuVECs on Matrigel. In kind it is cell-based, human. As to conditions: HuVECs treated with rhIGFBP-2 (FIG. 3D). The method, then:
Tube formation assays were performed as described previously (28) using an In Vitro Angiogenesis Assay Kit (Chemicon). The degree of network formation was quantified using the provider's instruction.

For assay [4], the system named is chicken chorioallantoic membrane (CAM). The assay can be described thus: Chorioallantoic membrane (CAM) neovascularization assay. In kind it is in vivo. Particulars: HuVECs treated with rhIGFBP-2 (FIG. 3E). As to the method:
To detect in vivo angiogenesis, we performed CAM assays as described (28). Either cells or CM in a collagen sponge were implanted onto the CAM at day 8 of fertilization. At day 12, CAMs were fixed with 10% formalin; the neovasculature was examined and photographed.
Fertilized chicken eggs (10 eggs per group) was incubated under routine conditions and a square window was opened in the egg shell at the third day of incubation, after removal of 2-3 ml of albumen to detach the shell from the developing CAM. The window was sealed with a glass of the same size and the eggs were returned to the incubator. Either cells or conditioned media with collagen sponge was implanted onto the CAM at day 8 of incubation. At day 12, CAMs were fixed with 10% formalin the neovasculature was examined and photographed.

In the next assay the test system is VEGF-A. Briefly: VEGF-A expression in HuVECs (real-time PCR, ELISA). In kind it is cell-based, human. As to conditions: HuVECs stimulated with rhIGFBP-2 (FIG. 5A). The method, then: (§1) FIG. 5A-G. IGFBP-2 upregulates the expression of vascular endothelial growth factor (VEGF-A) through the AKT pathway in HuVECs. a) The expression of VEGF-A mRNA (top panel) and protein (bottom panel) were measured by real-time PCR and ELISA, respectively, after treating HuVECs with the indicated doses of rhIGFBP-2. Data represents Mean±S.D. b) HuVECs were transfected with VEGF-A promoter luciferease reporter plasmid and treated with the indicated concentrations of rhIGFBP-2. 48 h after transfection, cells were harvested for luciferase assays as described in Materials and Methods. c) HuVECs (1×10^6 cells) were treated or untreated with the specified doses of rhIGFBP-2 for the indicated times and expression of pAKT and AKT was analyzed by Western blotting. d) HuVECs were pre-treated with LY294002 (30 min) and then treated with rhIGFBP-2. Top panel, analysis of the expression of pART and AKT by Western blotting. Bottom panel, analysis the expression of VEGF-A by ELISA in the CM. e) HuVECs were treated with rhIGFBP-2 together with anti-αVβ3 integrin antibody or anti-mouse IgG as control. Top panel, analysis of expression of pAKT and AKT by Western blotting. Bottom panel, analysis of expression of VEGF-A by ELISA in the CM. f & g) HuVECs were treated as in “e” and CM was used to analyze tube formation […] and neovascularization in CAM (g). […]

The subject of the next assay is VEGF-A promoter. The assay can be described thus: VEGF-A promoter luciferase reporter assay in HuVECs. In kind it is cell-based, human. As to conditions: HuVECs treated with rhIGFBP-2, 48 h after transfection (FIG. 5B). The method, then: as §1
In another assay the test system is AKT. Briefly: AKT activation (pAKT Western blotting) in HuVECs. In kind it is cell-based, human. As to conditions: rhIGFBP-2 treatment of HuVECs (FIG. 5C). As to the method:
as §1
In general terms: Immunoblotting shows a protein as a band on a membrane.

With `CC(C)(C)n1nc(-c2ccc(Cl)cc2)c2c(N)ncnc21` [PP-2], the “mda-9/syntenin-induced IGFBP-2 expression” value in the assay on IGFBP-2 was “dose-dependent decrease”.

B1: rhIGFBP-2: recombinant human IGFBP-2 protein (protein, UniProt P18065 36-325, looked up)
Insulin-like growth …: AEVLFRCPPCTPERLAACGPPPVAPPAAVAAVAGGARMPCAELVREPGCGCCSVCARLEGEACGVYTPRCGQGLRCYPHPGSELPLQALVMGEGTCEKRRDAEYGASPEQVADNGDDHSEGGLVENHVDSTMNMLGGGGSAGRKPLKSGMKELAVFREKVTEQHRQMGKGGKHHLGLEEPKKLRPPPARTPCQQELDQVLERISTMRLPDERGPLEHLYSLHIPNCDKHGLYNLKQCKMSLNGQRGECWCVNPNTGKLIQGAPTIRGDPECHLFYNEQQEARGVHTQRMQ
For B1, in the assay with HuVECs [1], the HuVEC proliferation entry was “significantly stimulated”. In addition, in the assay with HuVECs [2], the HuVEC migration result was “significantly stimulated”. The HuVEC tube formation result in the assay on HuVECs [3] was “significantly stimulated”. In addition, the “vascularization in CAM” value in assay [4] is on record as “significant vascularization”. Further, the “VEGF-A expression, both RNA and protein” value in the assay with VEGF-A was “dose-dependently up-regulated”. Besides, in the assay on VEGF-A promoter, the VEGF-A promoter activity result is listed as “dose-dependently up-regulated”. The “time to AKT activation” value in the assay on AKT is listed as at most 15 min.
